Reference: the supplement of paper PMC12042874
± gives the uncertainty stated by the source.

Assay: amyloid nucleation score (Sup35N fusion, yeast selection) (log enrichment); library NNK3; higher = more nucleation; inactive = no reads after selection
Summary of the method: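 Growth for 7 days at 30°C on medium lacking adenine and uracil followed a 24-hour induction with 100 μM copper sulfate of psi-negative yeast expressing peptides of 20 random codons fused to Sup35N. Input and output plasmid inserts were sequenced with Illumina, and sequences with under 100 input reads were excluded. Nucleation score is the DiMSum log enrichment of output over input reads, centred on the mode score of non-aggregating sequences.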
Work on INMALYSSLNLVG yielded an amyloid nucleation score of 1.32 ± 0.078. For IPAELDRQNSSAVNTPYHEM, the amyloid nucleation score was “inactive”. TCLQVSTFFVQASKSLYLPI showed an amyloid nucleation score of 0.953 ± 0.11. With LHGNLRNLI the amyloid nucleation score was “inactive”. With TYAIGLHMLGSMGKIPDWEQ the amyloid nucleation score was 1.25 ± 0.14. With TVDNHGSA the amyloid nucleation score was “inactive”. In the case of PFLLSFKGNMQADSPGC, the amyloid nucleation score is reported as “inactive”. ARSIFARLQYSHLSSRGEVI showed an amyloid nucleation score of 0.018 ± 1. With KGSSC the amyloid nucleation score was “inactive”. In the case of AITVGLSGARRD, the amyloid nucleation score is reported as “inactive”. With PTYAC the amyloid nucleation score was “inactive”. In the case of PGVDERT, the amyloid nucleation score is reported as “inactive”. In the case of NNLSNWIRKVCNSYYHPTYQ, the amyloid nucleation score is reported as “inactive”. With ESMTSNYYQMIGVFCEMLVR the amyloid nucleation score was “inactive”. For QRLRHFAVYTMMYEAWASRC, the amyloid nucleation score was “inactive”. With FMSFSRGCTWSLGWA the amyloid nucleation score was “inactive”. In the case of VIVKKLY, the amyloid nucleation score is reported as “inactive”. For WSGNCFNQSKLAWYDHYHQW, the amyloid nucleation score was “inactive”. With NRGLWRM the amyloid nucleation score was “inactive”. For IGAWHVLITGCTFQEIPR, the amyloid nucleation score was 1.88 ± 0.064. In the case of WKRNFIW, the amyloid nucleation score is reported as “inactive”. In the case of VFFTHATVLSKSYFNLERLV, the amyloid nucleation score is reported as 0.426 ± 0.33. For VMFFDIKIMARFWTPNEL, the amyloid nucleation score was “inactive”. For MASVSREAVQYNAWESMAIY, the amyloid nucleation score was “inactive”. In the case of GDRLFLKASG, the amyloid nucleation score is reported as “inactive”. In the case of LVHLEVGQGSSVVEHLRCVL, the amyloid nucleation score is reported as “inactive”. With TMRVVFRHKTVNRIEVKVYF the amyloid nucleation score was -0.234 ± 0.69. In the case of TCRQNFCYCLDVIVQSCLSS, the amyloid nucleation score is reported as “inactive”. With TVWKGIREYSRS the amyloid nucleation score was “inactive”. In the case of QLNGCHWCTMLSVVFCSRGV, the amyloid nucleation score is reported as 2.72 ± 0.069. For YSYHS, the amyloid nucleation score was “inactive”. Substance YCKIKLIQGNRFNEYISYCD has an amyloid nucleation score of 2.56 ± 0.054. For IVGYERATFVLRSYRFEKVS, the amyloid nucleation score was “inactive”. In the case of SFSFVVPQARYFPTC, the amyloid nucleation score is reported as “inactive”. With SIAIHWTLICGLYLSNSSRA the amyloid nucleation score was “inactive”. For LRRFWDRIPCFCLFHRFSFY, the amyloid nucleation score was “inactive”. With IPDDDFFLLALSTLN the amyloid nucleation score was “inactive”. In the case of SRFLLRNCPFLSGHVFTSQT, the amyloid nucleation score is reported as “inactive”. For GAGRNFGTVCL, the amyloid nucleation score was “inactive”. For NRSLEVNELI, the amyloid nucleation score was -0.412 ± 0.68. In the case of RPAHVIICYNLSYCNKWLHS, the amyloid nucleation score is reported as 2.04 ± 0.071. For LVYCFAYRVVHSNCHLESC, the amyloid nucleation score was “inactive”. In the case of ICLAFRPECCCGIWTDKRIG, the amyloid nucleation score is reported as 1.74 ± 0.088. IITSLK showed an amyloid nucleation score of 0.154 ± 0.27. For NNGSP, the amyloid nucleation score was “inactive”. In the case of TYFDFVLYV, the amyloid nucleation score is reported as “inactive”. YGYSVPGKIEFYVGVIGRNP gave an amyloid nucleation score of 1.2 ± 0.085. For QLSFMEGANLRYCDFKPMIV, the amyloid nucleation score was “inactive”. In the case of AVTKLILFVVSGGMLRVLEF, the amyloid nucleation score is reported as “inactive”. In the case of FVMLVSEYGKELYIIGRPGA, the amyloid nucleation score is reported as “inactive”. For KPVLVVVSNLIPWSYPE, the amyloid nucleation score was 2.25 ± 0.085. For YAYMYNVCYGDCRCANGVWY, the amyloid nucleation score was 2.71 ± 0.084. In the case of IQNSRNNKHYATFGTQFFMS, the amyloid nucleation score is reported as “inactive”. With MIACNSRRCI the amyloid nucleation score was “inactive”. In the case of PEGPDLTLILAIKPKLSCRG, the amyloid nucleation score is reported as “inactive”. For QRGVLL, the amyloid nucleation score was “inactive”. In the case of ELDAYIRRGLCSLKWCRKLN, the amyloid nucleation score is reported as “inactive”. In the case of WIMWTLAIKIIMCW, the amyloid nucleation score is reported as “inactive”. For MCYFEYNDVNWRVLLLYLCK, the amyloid nucleation score was “inactive”. For SIRISLEISGYSELSITFSC, the amyloid nucleation score was “inactive”. For NVVYTFPLYASDMGIGV, the amyloid nucleation score was “inactive”. In the case of HVARFMLNRYLLFGEPYMLK, the amyloid nucleation score is reported as “inactive”. For LCVNCLPRSLIFDSSIWRVD, the amyloid nucleation score was 0.296 ± 0.87. With MRMVTSCTISF the amyloid nucleation score was “inactive”. For FTLLVMS, the amyloid nucleation score was “inactive”. In the case of SIGWSMFDNSMVREIRTRTC, the amyloid nucleation score is reported as “inactive”. With YNKGRNY the amyloid nucleation score was “inactive”. With YMTCTR the amyloid nucleation score was “inactive”. For RRSVAFLPYMSW, the amyloid nucleation score was “inactive”. In the case of LEERLNFGKYAVGDGYTLV, the amyloid nucleation score is reported as “inactive”. For VLAKLVFKPYKKGVISQ, the amyloid nucleation score was “inactive”. With VVTSRCLRKKLFLDLSVCIT the amyloid nucleation score was “inactive”. In the case of SLMSFRYLRTFKWRSMSILS, the amyloid nucleation score is reported as “inactive”. With SQLLYI the amyloid nucleation score was “inactive”. For ISDHTLAGIIFC, the amyloid nucleation score was “inactive”. With IISMPLGACMKAARMSF the amyloid nucleation score was “inactive”. In the case of LVLTSPFRYSIV, the amyloid nucleation score is reported as “inactive”. For LSDMNVNKRMCCMVRDSNMR, the amyloid nucleation score was “inactive”. In the case of RICMRLVNMTLMCQISGVLG, the amyloid nucleation score is reported as “inactive”. With SGFYRENARILTV the amyloid nucleation score was “inactive”. With IYKSQMLEFVEVVRSYMPVQ the amyloid nucleation score was “inactive”. Substance LYHRAIGRSRQRENPSQKGG has an amyloid nucleation score of -0.048 ± 0.39. For CPFLILIFGYPK, the amyloid nucleation score was “inactive”. For LNLLKLRKKAPHRPIPGRSG, the amyloid nucleation score was “inactive”. With TLDLSHTMVCRLEYFSSAIG the amyloid nucleation score was “inactive”. Substance FILSVSYIRVCGARC has an amyloid nucleation score of 0.097 ± 0.48. For SFSFVQGSVPSTSFGSLKLA, the amyloid nucleation score was “inactive”. For ACSNWMRLMLVWNSTRNRVV, the amyloid nucleation score was “inactive”. In the case of LLVSIFLGYPQ, the amyloid nucleation score is reported as “inactive”. With PSHIGLL the amyloid nucleation score was “inactive”. Substance LVLVSTFMHVGDVCYHMYY has an amyloid nucleation score of 2.99 ± 0.057. For NHLLSSSGSNGMLKLIRFIG, the amyloid nucleation score was “inactive”. With LSGFDFAL the amyloid nucleation score was “inactive”. With ESNDIIINV the amyloid nucleation score was “inactive”. In the case of FSCSDLWGRSTLDKGYSFFR, the amyloid nucleation score is reported as “inactive”. In the case of RYFKIPF, the amyloid nucleation score is reported as “inactive”. In the case of GWTGVVFPVVSINSYQFTLF, the amyloid nucleation score is reported as 0.757 ± 0.33. Work on FSAIWMSRQSYLRINGSPAF yielded an amyloid nucleation score of 0.088 ± 0.29. For TGIMIVNYLVSELKPRTIST, the amyloid nucleation score was 0.923 ± 0.11. With MLDSRYGKMCRGEW the amyloid nucleation score was “inactive”. For NSRHLDIFRMFDNFSVCHQP, the amyloid nucleation score was “inactive”. With IFVLQGRKYSSTSWLITHHC the amyloid nucleation score was “inactive”. For TLSWNISCVCSERPFFNMHV, the amyloid nucleation score was “inactive”. For NLEFFCKDV, the amyloid nucleation score was “inactive”. For FNIEASYAPVRCCCKPLLAR, the amyloid nucleation score was “inactive”. With YSLFWCNNNVRGGKASMWYR the amyloid nucleation score was “inactive”. In the case of CSFGRS, the amyloid nucleation score is reported as “inactive”. For FHGKNVF, the amyloid nucleation score was “inactive”. With GSRVMMCPNT the amyloid nucleation score was “inactive”. With WIERAAAALVLDLLCSKRRA the amyloid nucleation score was “inactive”. With LRRYALGLSYCLEVK the amyloid nucleation score was “inactive”. For KPASAGLVINAVGSGHSEMW, the amyloid nucleation score was “inactive”. With TDRRKK the amyloid nucleation score was “inactive”. For MDSPTGLALDG, the amyloid nucleation score was “inactive”. In the case of ICKRYYLPINFRG, the amyloid nucleation score is reported as “inactive”. For TIFVTTR, the amyloid nucleation score was “inactive”. For ISTCMMFLF, the amyloid nucleation score was “inactive”. With LLSPEEGGLKSECRRWSGAL the amyloid nucleation score was “inactive”. For GLEGLLVLWFQCSFTVAALR, the amyloid nucleation score was “inactive”. With KIYQYPVGRLGNCSGLHVWT the amyloid nucleation score was “inactive”. In the case of SLCTSEYFHSTYRNITGLVL, the amyloid nucleation score is reported as “inactive”. With VPCMRNFDLYLKSVTDRLDK the amyloid nucleation score was “inactive”. With SRACSTHCIFEGTWSG the amyloid nucleation score was “inactive”. For YNMLCCRLSWRYIDRRQGRR, the amyloid nucleation score was 3.17 ± 0.072. For EYMYIYPPFPMPWDDG, the amyloid nucleation score was “inactive”. With PYLRMG the amyloid nucleation score was “inactive”. For LLCNESILKPVTPKWRDCKL, the amyloid nucleation score was “inactive”. For SWFSVMGNVFRMHFERRYSV, the amyloid nucleation score was “inactive”. In the case of VMLRTFSA, the amyloid nucleation score is reported as “inactive”. With TWNGMWFVLSSL the amyloid nucleation score was “inactive”. For ALSLYLISLWYGYSWYLRFD, the amyloid nucleation score was “inactive”. With DNEEKLIGRSL the amyloid nucleation score was “inactive”. Substance RLNIYLWGVGLTRDVIYPPS has an amyloid nucleation score of 1.66 ± 0.1. RLRRLCYSSGELDALGLCVW gave an amyloid nucleation score of 0.261 ± 0.42. For FRGKISKEPNCVVYFQQGRP, the amyloid nucleation score was “inactive”. In the case of ITVCYMNKIWLK, the amyloid nucleation score is reported as “inactive”. For AMFTRSRVSITLCGRWAYCS, the amyloid nucleation score was “inactive”. In the case of YVLMGAYASVL, the amyloid nucleation score is reported as “inactive”. For CNWMIPASSP, the amyloid nucleation score was “inactive”. In the case of SSTSCTHGYVGMFGFPSVVS, the amyloid nucleation score is reported as “inactive”. Substance YFLEGNFESRWGECRSARSW has an amyloid nucleation score of 0.053 ± 0.52. With ELYSDG the amyloid nucleation score was “inactive”. With VWLCSLLQITFIYAEVTVSL the amyloid nucleation score was “inactive”. With YGWFVDFGEYVTESNVGLY the amyloid nucleation score was “inactive”. In the case of DNARCSLHFYNSCWISVWKY, the amyloid nucleation score is reported as “inactive”. With LDCHVS the amyloid nucleation score was “inactive”. With AFVKFSRTWSSVSSLCGFQA the amyloid nucleation score was “inactive”. For DYESMTCNVSSDTVPFQQA, the amyloid nucleation score was “inactive”. With LDTYCIVDRDNRCGRNVVLY the amyloid nucleation score was “inactive”. For LVTGNVYVF, the amyloid nucleation score was “inactive”. In the case of NLNGFYSRGVIFR, the amyloid nucleation score is reported as “inactive”. In the case of RSVAVITRCSNNGRSHKC, the amyloid nucleation score is reported as “inactive”. In the case of MLKSTKKSRGLYMVSYTFTG, the amyloid nucleation score is reported as “inactive”. With FFGKAT the amyloid nucleation score was “inactive”. With CNFQYILCRIM the amyloid nucleation score was 2.15 ± 0.057. With SIPRRNRDGLAWNARHNLQY the amyloid nucleation score was “inactive”. For SAECSVPEYVHRHKVIWHGL, the amyloid nucleation score was “inactive”. CRCNVSLGILFKRGMSKRRI gave an amyloid nucleation score of 1.01 ± 0.11. VYISESVQRMYSLCTFSSLD showed an amyloid nucleation score of 1.18 ± 0.085. In the case of GPLESIFNQFAVIATVPRVW, the amyloid nucleation score is reported as “inactive”. For DEKIGGTVKYGVVQAYV, the amyloid nucleation score was “inactive”. With FLMSHVII the amyloid nucleation score was “inactive”.
